Test results: patent US20230340055A1 (published 2023)

Columns and labels:
[1] = biological target: T1, IL-2Rβγ (dimeric intermediate affinity IL-2 receptor), human, on cells (human, UniProt P14784 27-551; P31785 23-369); test: cell-based or functional assay
T1 sequence (looked up) 1: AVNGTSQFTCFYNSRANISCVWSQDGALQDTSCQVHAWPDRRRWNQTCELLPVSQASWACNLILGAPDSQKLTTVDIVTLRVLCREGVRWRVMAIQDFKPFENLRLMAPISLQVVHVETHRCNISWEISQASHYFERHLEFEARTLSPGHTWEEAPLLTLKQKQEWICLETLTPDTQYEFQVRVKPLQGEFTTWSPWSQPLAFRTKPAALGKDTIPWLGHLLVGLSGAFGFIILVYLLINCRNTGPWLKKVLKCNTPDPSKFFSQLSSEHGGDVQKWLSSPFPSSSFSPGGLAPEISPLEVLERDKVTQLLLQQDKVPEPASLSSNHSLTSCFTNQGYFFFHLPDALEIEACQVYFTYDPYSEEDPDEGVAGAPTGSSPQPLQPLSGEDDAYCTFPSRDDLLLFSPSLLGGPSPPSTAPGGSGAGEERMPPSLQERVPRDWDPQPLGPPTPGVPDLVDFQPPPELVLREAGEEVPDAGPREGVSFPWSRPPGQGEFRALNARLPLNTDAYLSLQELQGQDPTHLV
T1 sequence (looked up) 2: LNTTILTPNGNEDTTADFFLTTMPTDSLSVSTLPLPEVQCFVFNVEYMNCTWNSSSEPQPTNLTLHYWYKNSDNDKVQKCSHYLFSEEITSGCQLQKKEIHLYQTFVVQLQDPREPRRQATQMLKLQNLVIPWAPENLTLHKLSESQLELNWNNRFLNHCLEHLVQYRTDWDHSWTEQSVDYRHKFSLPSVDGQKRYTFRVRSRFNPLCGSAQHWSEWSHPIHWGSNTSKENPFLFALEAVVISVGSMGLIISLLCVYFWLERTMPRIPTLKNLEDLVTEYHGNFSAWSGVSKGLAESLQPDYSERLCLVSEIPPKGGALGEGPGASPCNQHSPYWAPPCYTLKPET

[2] = biological target: T2, IL-2-Rα/β/γ on the murine CTLL-2 T lymphocyte cell line (murine, UniProt P01590 22-268; P16297 27-539; P34902 23-369); test: cell-based or functional assay
T2 sequence (looked up) 1: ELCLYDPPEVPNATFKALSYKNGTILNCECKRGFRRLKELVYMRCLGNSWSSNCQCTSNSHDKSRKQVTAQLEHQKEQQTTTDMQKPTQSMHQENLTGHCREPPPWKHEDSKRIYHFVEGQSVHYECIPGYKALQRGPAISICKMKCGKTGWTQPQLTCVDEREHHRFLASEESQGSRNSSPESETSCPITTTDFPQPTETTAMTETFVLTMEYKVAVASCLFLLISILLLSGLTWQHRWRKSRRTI
T2 sequence (looked up) 2: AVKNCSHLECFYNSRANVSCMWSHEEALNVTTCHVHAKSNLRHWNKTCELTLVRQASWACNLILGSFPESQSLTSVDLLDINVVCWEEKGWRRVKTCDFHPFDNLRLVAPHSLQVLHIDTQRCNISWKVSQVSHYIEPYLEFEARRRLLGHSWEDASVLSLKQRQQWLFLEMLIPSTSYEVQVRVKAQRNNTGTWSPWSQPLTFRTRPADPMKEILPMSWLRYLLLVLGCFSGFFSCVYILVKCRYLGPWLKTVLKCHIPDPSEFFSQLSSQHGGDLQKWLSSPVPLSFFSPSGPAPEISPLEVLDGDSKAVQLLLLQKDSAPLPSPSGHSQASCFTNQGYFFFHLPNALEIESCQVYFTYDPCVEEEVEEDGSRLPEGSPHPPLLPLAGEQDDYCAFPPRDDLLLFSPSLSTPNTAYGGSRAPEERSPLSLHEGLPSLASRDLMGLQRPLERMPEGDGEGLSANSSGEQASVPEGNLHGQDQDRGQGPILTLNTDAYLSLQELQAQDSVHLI
T2 sequence (looked up) 3: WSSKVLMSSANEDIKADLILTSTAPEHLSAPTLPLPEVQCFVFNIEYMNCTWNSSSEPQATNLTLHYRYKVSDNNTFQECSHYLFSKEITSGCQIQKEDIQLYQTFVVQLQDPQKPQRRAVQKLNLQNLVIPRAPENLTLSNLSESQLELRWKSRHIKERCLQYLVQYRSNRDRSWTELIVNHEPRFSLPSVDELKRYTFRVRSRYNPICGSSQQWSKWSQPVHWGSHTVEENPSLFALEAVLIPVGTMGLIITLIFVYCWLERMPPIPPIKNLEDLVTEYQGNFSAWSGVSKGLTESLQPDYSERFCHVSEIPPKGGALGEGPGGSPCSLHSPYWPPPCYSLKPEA

[3] = biological target: T3, Human IL-2 Receptor beta, Fc-Tag (Symansis, New Zealand) (human, UniProt P14784 27-240); test: SPR (Biacore T200), IL-2Rβ-Fc captured on anti-human IgG (Fc) CM5 chip, IL-2 as analyte, multi-cycle kinetics, 1:1 kinetic fit, 25 C
T3 construct: extracellular domain; Bought reagent; also called IL-2Rβ; IL-2Rβ-Fc; not shown: Fc-Tag (captured by anti-human IgG (Fc) antibody)
T3 sequence (looked up): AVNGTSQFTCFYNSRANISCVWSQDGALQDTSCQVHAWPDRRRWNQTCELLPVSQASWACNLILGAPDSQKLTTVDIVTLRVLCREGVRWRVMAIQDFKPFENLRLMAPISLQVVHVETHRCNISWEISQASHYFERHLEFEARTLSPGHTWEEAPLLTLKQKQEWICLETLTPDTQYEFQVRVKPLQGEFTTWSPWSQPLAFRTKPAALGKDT
Protocol: For the determination of binding kinetics to IL-2Rβ the following chip preparation was used: Human IL-2 Receptor beta, Fc-Tag (Symansis, New Zealand) was diluted in HBS-EP running buffer (GE Healthcare, 10 mM HEPES, 150 mM NaCl, 3 mM EDTA, 0.05% Surfactant P20, pH 7.4) to around 0.25 µg/mL and immobilized at a flow rate of 50 µL/min for 60 s to achieve 300 - 330 response units (RU).
(50 µL/min flow rate, 60 s contact time, 300 s dissociation time). Double referenced data (subtracted data from the reference flow cell and the buffer only samples) was analysed via a kinetic fit (1:1 binding model) to determine KD, kₐ and kd. Regeneration after each cycle was performed with 3 M MgCl₂.

- EC50 HH cells, STAT5 phosphorylation [1]: 0.0966 µg/mL
- EC50 CTLL-2, STAT5 phosphorylation [2]: 3.39 µg/mL
- Ratio (E50 CTLL-2 cells/EC50 HH cell) [2]: 35.1
- Kd [3]: 740 nM
B1: protein 6 (ligand)
chain: APTSSSTKKTQLQLEHLLLDLQMILNGINNYKNPKLTFGNSTKFYMPKKATELKHLQCLEEELKPLEEVLNLAQSKNFHLRPRDLISNINVIVLELKGSETTFMCEYADETATIVEFLNRWITFSQSIISTLT
modifications: glycosylated (same sequence with the N-glycosylation motif FGNST as protein 1f); glycan sites not analysed separately for protein 6
